Results reported in patent US20230192894A1.

Biological target: canine FcεRIα on the surface of canine mast cell line HMRC cells (canine)
Test: flow cytometry, FITC-labelled control on canine mast cell line HMRC

mouse IgG2b isotype control labeled with FITC (antibody)
median fluorescence intensity: 1720
